The labels stand for the following.
T1: carcinoembryonic antigen (UniProt P06731 35-685)
T1 construct: Bought reagent (Biodesign); also called CEA
T1 sequence: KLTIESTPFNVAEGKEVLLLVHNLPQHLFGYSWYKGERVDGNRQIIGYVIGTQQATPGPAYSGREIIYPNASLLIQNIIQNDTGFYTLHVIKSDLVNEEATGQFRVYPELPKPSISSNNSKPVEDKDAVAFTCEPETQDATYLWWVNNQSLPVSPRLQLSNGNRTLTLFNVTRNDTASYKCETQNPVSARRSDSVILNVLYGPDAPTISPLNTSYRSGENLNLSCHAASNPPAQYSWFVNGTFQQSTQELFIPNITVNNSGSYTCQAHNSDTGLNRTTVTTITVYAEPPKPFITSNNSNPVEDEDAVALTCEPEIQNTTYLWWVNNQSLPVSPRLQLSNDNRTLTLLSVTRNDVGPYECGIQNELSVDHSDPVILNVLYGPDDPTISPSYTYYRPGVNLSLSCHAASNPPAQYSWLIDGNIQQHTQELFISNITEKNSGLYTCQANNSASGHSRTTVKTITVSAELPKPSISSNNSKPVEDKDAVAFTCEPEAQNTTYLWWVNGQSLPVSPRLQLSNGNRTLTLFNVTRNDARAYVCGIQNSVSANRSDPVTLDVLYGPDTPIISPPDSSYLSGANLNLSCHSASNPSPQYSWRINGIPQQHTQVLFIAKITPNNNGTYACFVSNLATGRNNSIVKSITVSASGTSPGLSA

B1: NA06.4 (scFv)
chain: QVKLQQSGAELVKSGGSVKLSCTASGFNIKDSYMHWVRQGPEQGLEWIGWIDPENGDTEYAPKFQGKATFTTDTSSNTAYLQLSSLTSEDTAVYYCNEGTPTGPYYFDYWGQGTTVTVSSGGGGSGGGGSGGGGSENVLTQSPAIVSASPGEKVTITCSASSSVSYMHWFQQKPGTSPKLVIYSTSNLASGVPARFSGSGSGTSYSLTISRMEAEDAATYYCQQRSSYPLTFGAGTKLELKRAATLVSEKQLAEVVANTITPLMKAQSVPGMAVAVIYQGKPHYYTFGKADIAANKPVTPQTLFELGSISKTFTGVLGGDAIARGEISLDDAVTRYWPQLTGKQWQGIRMLDLATYTAGGLPLQVPDEVTDNASLLRFYQNWQPQWKPGTTRLYANASIGLFGALAVKPSGMPYEQAMTTRVLKPLKLDHTWINVPKAEEAHYAWGYRDGKAVRVSPGMLDAQAYGVKTNVQDMANWVMANMAPENVADASLKQGIALAQSRYWRIGSMYQGLGWEMLNWPVEANTVVETSFGNVALAPLPVAEVNPPAPPVKASWVHKTGSTGGFGSYVAFIPEKQIGIVMLANTSYPNPARVEAAYHILEALQ
notes: Variant of the CAB1 scFv-BLA fusion built on NA05.6; Tested as crude lysate after thermolysin treatment; Positions are numbered along the whole CAB1 fusion (pME27)
B2: NA06.10 (scFv)
chain: B1 chain with A194D
notes: as for B1
B3: NA06.12 (scFv)
chain: B1 chain with E136Q, V146M
notes: as for B1
B4: NA06.2 (scFv)
chain: B1 chain with E42G, V146M, A194D
notes: as for B1
B5: NA06.6 (scFv)
chain: B1 chain with K3Q
notes: as for B1
B6: NA06.11 (scFv)
chain: B1 chain with K3Q, V146M, A194D
notes: as for B1
B7: NA05.9 (scFv)
chain: B1 chain with K3Q, K13R, S14P, G16T, E42G, E136Q, A234G
notes: Variant of the CAB1 scFv-BLA fusion, tested as crude lysate; Positions are numbered along the whole CAB1 fusion (pME27)
B8: NA05.6 (scFv)
chain: B1 chain with V37L, V146M
notes: Variant of the CAB1 scFv-BLA fusion (plasmid pME27.1), tested as crude E. coli lysate; also called pNA05.6; parent NA05.6
B9: NA05.12 (scFv)
chain: B1 chain with K3Q, K13R, S14P, G16T, V181W
notes: as for B7
B10: NA05.8 (scFv)
chain: B1 chain with G16T, V37L, V146M, F170Y, V181W, A234G
notes: as for B7
B11: NA05.15 (scFv)
chain: B1 chain with K13R, G16T, V37L, F170Y, V181W, A194D
notes: as for B7

Where a chain is given by its changes, count along the chain named.

One assay deals with T1, carcinoembryonic antigen. Nature of the assay: CEA-coated plate assay on thermolysin-treated lysate, BLA/nitrocefin read-out.
Consider B1, for which the binding result is reported as “binds”.
For the molecule B2, the binding result was “binds”.
With B3, the binding result is “binds”.
With B4, the binding result was “binds”.
For B5, the binding result is given as “binds”.
Consider B6, for which the binding result is listed as “binds”.

Another assay addresses T1, carcinoembryonic antigen. The experiment in a line: plate assay: CEA coated on wells, culture lysate added, bound fusion read by BLA activity on nitrocefin.
For B7, the binding result is on record as “binds”.
Still for that read-out and setting: in the case of B8 it was “binds”; in that of B9, “binds”; in that of B10, “binds”.
B11: the binding result was “binds”.

These data come from patent US20050084868A1 (published 2005).
